Laboratory results published in paper PMC12362114.

Tests used:
[1] = anti-Flag Western blot, Hep3B lysates; conditions: glycan lost; control: wild type 3xFlag-FASN
[2] = BODIPY 493/503 staining, confocal, droplet count; conditions: glycan lost; control: wild type 3xFlag-FASN
[3] = cell fractionation (membrane vs cytosol), Western blot; conditions: glycan lost; control: wild type 3xFlag-FASN
[4] = cycloheximide chase 0-24 h, protein remaining; conditions: glycan lost; control: wild type 3xFlag-FASN
[5] = target: 3xFlag-FASN wild type (fatty acid synthase) (UniProt P49327); assay: native gel or EMSA; lysates of transfected Hep3B cells (10 mM Tris/HCl, 1 mM EDTA, 1 mM EGTA, 0.5% Triton X-100, pH 7.5) on a 4-to-10% gradient gel, 50 V overnight at 4 °C, blotted for 3xFlag-FASN; monomers (~250 kDa) and dimers (~500 kDa)

stoichiometry N [5] | Substance | expression_or_secretion [1] | other: lipid droplet number (activity proxy) [2] | localisation_or_trafficking [3] | degradation_or_half_life [4]
– | Fatty Acid Synthase (FASN): S595A | decreases | no change | no change | –
– | Fatty Acid Synthase (FASN): T980A | decreases | – | decreases | decreases
2 | 3xFlag-FASN wild type (fatty acid synthase), P49327 1-2511 | – | – | – | –
